According to article PMC12081870 (Communications Biology, 2025):

Assay: 15N NMR relaxation (T1, T2, NOE) of Sla1 SH3#1&2
Format: physicochemical, Saccharomyces cerevisiae
Parameters: Time Constant (T2) / T1 / T2: unit not given here
Settings: fit A exp(-Bx), 11 peaks
Excerpt: Fig. 2 A structural analysis of Sla1 SH3 domains 1 and 2. A The predicted interface between the first two SH3 domains of Sla1 as modelled using Alphafold. SH3#1 is shown in light green and SH3#2 is shown in cyan. Residues predicted to form hydrogen bonds using the Pymol search function are shown as sticks and labelled with their respective residue numbers. Dashed black lines indicate interactions. The red line in the structure indicates residues 67–70 in the hinge between the SH3 domains; the magenta loop indicates residues 52–54. B Assignment of the ^1H ^15N HSQC spectrum of Sla1 SH3 domains 1 and 2. C^15N relaxation data for Sla1 SH3#1&2. The linker between domains is approximately residues 67–70 (shown with red line under the trace and in A), and the mobile region 52-54 is part of a loop (shown with magenta line below the trace and in A). The correlation time of 8.5 ns (derived from the trimmed ^15N T1/T2 ratio), matches that calculated for a rigid two-domain structure rather than two independent domains (8.8 and 4.5 ns, respectively).
To investigate further, we purified ^15N, ^13C labelled Sla1 SH3#1&2 and analysed using NMR. A full assignment was obtained (Fig. 2B) which confirmed the Alphafold structure. An important aspect when considering the function of tandem domains is the level of rigidity or flexibility between the domains. […] NMR was used to determine relaxation parameters (^15N R1, R2 and NOE) of ^15N-labelled SH3#1-2 (Fig. 2B). […] The structural unity of the two-domain structure explains why attempts to study SH3#2 alone were unsuccessful.
Experiments were carried out on Bruker DRX-600 and DRX-800 spectrometers fitted with cryoprobes. SH3 domains 1 and 2 were assigned using a standard set of HNCA/HN(CO)CA, HNCO/HN(CA)CO and CBCAHN/CBCA(CO)HN 3D spectra. The assignment has been deposited at BioMagResBank, with code 52650. SH3 domain-3 was assigned by comparison to data provided by Prof Ishwar Radhakrishnan (Northwestern University) for the same domain although with different residues at both ends. Titrations were conducted with three peptides (GenScript Biotech, UK) comprising the three PP motifs (Fig. 3A): p1 […] (residues 318–339); p2 […] (residues 330–361); and p3 […] (residues 375–397). Peptide solutions were prepared as concentrated stock solutions in the same buffer at the same pH and added stepwise to protein solutions. Shift changes were analysed by picking peaks in Felix (Felix NMR Inc, San Diego, CA), which were downloaded to text files and for determining Kd were analysed using Levenberg-Marquardt least squares fitting to the standard quadratic equation[63]. Analysis of the ^15N relaxation data was carried using CCPN Analysis[64].

B1: Sla1 SH3#1-2: SH3#1-2 (aa 5-131), tandem domains; sequence in b253 (protein)
chain: LGIYRAVYAYEPQTPEELAIQEDDLLYLLQKSDIDDWWTVKKRVIGSDSEEPVGLVPSTYIEEAPVLKKVRAIYDYEQVQNADEELTFHENDVFDVFDDKDADWLLVKSTVSNEFGFIPGNYVEPEN
modifications: 15N-labelled (NMR only); left off: GST, end not stated, cleaved
Time Constant (T2) (residue 39, 39AspH/39AspN): 104.622
Time Constant (T2) (residue 40, 40AspH/40AspN): 92.3559
Time Constant (T2) (residue 41, 41TrpH/41TrpN): 105.38
Time Constant (T2) (residue 42, 42TrpH/42TrpN): 87.941
Time Constant (T2) (residue 43, 43ThrH/43ThrN): 96.7782
Time Constant (T2) (residue 44, 44ValH/44ValN): 79.239
Time Constant (T2) (residue 45, 45LysH/45LysN): 89.2928
Time Constant (T2) (residue 46, 46LysH/46LysN): 79.9381
Time Constant (T2) (residue 47, 47ArgH/47ArgN): 96.0563
Time Constant (T2) (residue 48, 48ValH/48ValN): 80.6125
Time Constant (T2) (residue 49, 49IleH/49IleN): 93.7827
Time Constant (T2) (residue 50, 50GlyH/50GlyN): 115.88
Time Constant (T2) (residue 51, 51SerH/51SerN): 86.3946
Time Constant (T2) (residue 52, 52AspH/52AspN): 168.141
Time Constant (T2) (residue 53, 53SerH/53SerN): 144.016
Time Constant (T2) (residue 54, 54GluH/54GluN): 154.977
Time Constant (T2) (residue 55, 55GluH/55GluN): 101.598
Time Constant (T2) (residue 57, 57ValH/57ValN): 100.05
Time Constant (T2) (residue 58, 58GlyH/58GlyN): 89.0014
Time Constant (T2) (residue 59, 59LeuH/59LeuN): 85.278
Time Constant (T2) (residue 60, 60ValH/60ValN): 98.7206
Time Constant (T2) (residue 62, 62SerH/62SerN): 97.5945
Time Constant (T2) (residue 63, 63ThrH/63ThrN): 81.7496
Time Constant (T2) (residue 64, 64TyrH/64TyrN): 104.147
Time Constant (T2) (residue 65, 65IleH/65IleN): 90.7515
Time Constant (T2) (residue 66, 66GluH/66GluN): 88.572
Time Constant (T2) (residue 67, 67GluH/67GluN): 102.479
Time Constant (T2) (residue 68, 68AlaH/68AlaN): 84.1741
Time Constant (T2) (residue 70, 70ValH/70ValN): 100.257
Time Constant (T2) (residue 71, 71LeuH/71LeuN): 80.9555
Time Constant (T2) (residue 72, 72LysH/72LysN): 97.8301
Time Constant (T2) (residue 73, 73LysH/73LysN): 97.0107
Time Constant (T2) (residue 74, 74ValH/74ValN): 95.1713
Time Constant (T2) (residue 75, 75ArgH/75ArgN): 95.2306
Time Constant (T2) (residue 76, 76AlaH/76AlaN): 79.2788
Time Constant (T2) (residue 77, 77IleH/77IleN): 85.3516
Time Constant (T2) (residue 78, 78TyrH/78TyrN): 77.7575
Time Constant (T2) (residue 79, 79AspH/79AspN): 86.8514
Time Constant (T2) (residue 80, 80TyrH/80TyrN): 102.25
Time Constant (T2) (residue 81, 81GluH/81GluN): 91.1679
Time Constant (T2) (residue 82, 82GlnH/82GlnN): 103.776
Time Constant (T2) (residue 83, 83ValH/83ValN): 96.58
Time Constant (T2) (residue 84, 84GlnH/84GlnN): 115.172
Time Constant (T2) (residue 85, 85AsnH/85AsnN): 109.146
Time Constant (T2) (residue 86, 86AlaH/86AlaN): 101.454
Time Constant (T2) (residue 87, 87AspH/87AspN): 93.3182
Time Constant (T2) (residue 88, 88GluH/88GluN): 94.5093
Time Constant (T2) (residue 89, 89GluH/89GluN): 99.1662
Time Constant (T2) (residue 90, 90LeuH/90LeuN): 96.3149
Time Constant (T2) (residue 91, 91ThrH/91ThrN): 78.2582
Time Constant (T2) (residue 92, 92PheH/92PheN): 85.0538
Time Constant (T2) (residue 93, 93HisH/93HisN): 82.1244
Time Constant (T2) (residue 94, 94GluH/94GluN): 97.249
Time Constant (T2) (residue 95, 95AsnH/95AsnN): 98.0824
Time Constant (T2) (residue 96, 96AspH/96AspN): 93.6871
Time Constant (T2) (residue 97, 97ValH/97ValN): 100.422
Time Constant (T2) (residue 98, 98PheH/98PheN): 79.4419
Time Constant (T2) (residue 99, 99AspH/99AspN): 97.6801
Time Constant (T2) (residue 100, 100ValH/100ValN): 97.751
Time Constant (T2) (residue 101, 101PheH/101PheN): 95.7132
Time Constant (T2) (residue 102, 102AspH/102AspN): 87.4197
Time Constant (T2) (residue 103, 103AspH/103AspN): 77.1058
Time Constant (T2) (residue 104, 104LysH/104LysN): 88.8779
Time Constant (T2) (residue 105, 105AspH/105AspN): 102.407
Time Constant (T2) (residue 106, 106AlaH/106AlaN): 137.978
Time Constant (T2) (residue 107, 107AspH/107AspN): 99.1634
Time Constant (T2) (residue 108, 108TrpH/108TrpN): 105.531
Time Constant (T2) (residue 109, 109LeuH/109LeuN): 92.4282
Time Constant (T2) (residue 110, 110LeuH/110LeuN): 99.3469
Time Constant (T2) (residue 111, 111ValH/111ValN): 90.5694
Time Constant (T2) (residue 112, 112LysH/112LysN): 92.6618
Time Constant (T2) (residue 113, 113SerH/113SerN): 88.7102
Time Constant (T2) (residue 114, 114ThrH/114ThrN): 88.1188
Time Constant (T2) (residue 115, 115ValH/115ValN): 99.4179
Time Constant (T2) (residue 116, 116SerH/116SerN): 105.651
Time Constant (T2) (residue 117, 117AsnH/117AsnN): 79.9936
Time Constant (T2) (residue 118, 118GluH/118GluN): 87.975
Time Constant (T2) (residue 119, 119PheH/119PheN): 95.7684
Time Constant (T2) (residue 120, 120GlyH/120GlyN): 81.3349
Time Constant (T2) (residue 121, 121PheH/121PheN): 97.0012
Time Constant (T2) (residue 122, 122IleH/122IleN): 86.8543
